Measurements published in publication PMC11566906, “Transcription factor PbrERF114 is involved in the regulation of ethylene synthesis during pear fruit ripening”.

How the values were obtained:
[1] = molecular target: T1, PbrERF114 (pear, cultivar Cuiguan?, UniProt A0A5H2MWQ4 1-250); assay: BLI; saturated at 8382 nM; sentence names PbrERF24-His, but context and legend are PbrERF114; BLI: 137 mM NaCl, 4.3 mM Na2HPO4, 2.7 mM KCl, 1.4 mM KH2PO4, 0.02% Tween-20, pH 7.2 (PBS), streptavidin sensors, temperature not given; EMSA: LightShift Chemiluminescent EMSA kit, buffer not given; details: protein: recombinant; tags: His; pCold-TF vector (trigger factor fusion implied); label: biotin
[2] = molecular target: T1, PbrERF114; assay: EMSA; signal decreased with 10x, 50x, 200x cold probe; BLI: 137 mM NaCl, 4.3 mM Na2HPO4, 2.7 mM KCl, 1.4 mM KH2PO4, 0.02% Tween-20, pH 7.2 (PBS), streptavidin sensors, temperature not given; EMSA: LightShift Chemiluminescent EMSA kit, buffer not given; details: protein: recombinant; tags: His; pCold-TF vector (trigger factor fusion implied); label: biotin

T1 sequence (A0A5H2MWQ4 entry or part of it): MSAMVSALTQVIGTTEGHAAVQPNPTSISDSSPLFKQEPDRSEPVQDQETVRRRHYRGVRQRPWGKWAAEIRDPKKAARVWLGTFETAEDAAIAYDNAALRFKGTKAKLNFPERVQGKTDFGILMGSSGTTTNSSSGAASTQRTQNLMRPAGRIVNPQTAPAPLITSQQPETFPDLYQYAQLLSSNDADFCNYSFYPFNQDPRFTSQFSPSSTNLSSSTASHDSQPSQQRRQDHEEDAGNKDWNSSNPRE

Row | Binder | Kd [1] [nM] | binding result [2]
1 | PbrERF24 promoter probe (dsDNA) DNA 1: CCAGTTTACAATGGTGGCCAAGATTGTAAT DNA 2: ATTACAATCTTGGCCACCATTGTAAACTGG | < 1000 | –
2 | PbrACS3 promoter probe (PbrERF114 EMSA) (dsDNA) DNA 1: TTACCATCTTAGGTGGCAGATGAGTTGGAC DNA 2: GTCCAACTCATCTGCCACCTAAGATGGTAA | – | binds
